Results as given in patent US20210054077A1 (AMUNIX PHARMACEUTICALS, published 2021).
One block for each binder: values may come before it.

Experiments:
[1] = target: human HER2 on cells (HER2 positive human carcinoma cells; CT26-huHER2 transfected cells; human cardiomyocytes) (human) (UniProt P04626); experiment: cell-based or functional assay
[2] = target: human HER2 on cells (HER2 positive human carcinoma cells; CT26-huHER2 transfected cells; human cardiomyocytes) (human, UniProt P04626 23-1255); experiment: cell-based or functional assay
Human CD3 ϵ -Fc = target: T1, Human CD3 ϵ -Fc (human, UniProt P07766 23-126); experiment: BLI (ForteBio Octet Red); target-Fc loaded on anti-human Fc biosensor, AC2275 as analyte 1010 nM to 16 nM
T1 construct: not shown: Fc part, captured on anti-human Fc biosensors
T1 sequence (P07766 23-126): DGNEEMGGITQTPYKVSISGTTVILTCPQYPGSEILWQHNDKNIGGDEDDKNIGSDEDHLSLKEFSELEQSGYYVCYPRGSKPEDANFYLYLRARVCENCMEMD

Cyno CD3 ϵ -Fc = target: T2, Cyno CD3 ϵ -Fc (cynomolgus monkey, UniProt Q95LI5 22-117); experiment: as above
T2 construct: also called cynomolgus monkey CD3; not shown: Fc part, captured on anti-human Fc biosensors
T2 sequence (looked up): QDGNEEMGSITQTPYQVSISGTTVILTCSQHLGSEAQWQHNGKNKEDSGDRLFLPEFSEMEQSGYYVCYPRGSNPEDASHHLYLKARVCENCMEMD

[3] = target: Biotinylated CD3CEµ antigen (Creative Biomart); experiment: BLI (ForteBio BLItz); biotinylated CD3 antigen on streptavidin biosensor, scFv dilution series in solution
Chain of Biotinylated CD3CEµ antigen (Creative Biomart) (P07766 23-126): as the sequence (P07766 23-126) above

B1: pJB0244, masked anti-HER2 x anti-CD3 bispecific antigen binding polypeptide with two XTEN and two RSR2295 release segments (bispecific antibody, part only; not given: AE868 XTEN, scFv linker, not shown: small tags and cut ends)
chain, part: HHHHHHSPAGSPTSTEEGTSESATPESGPGTSTEPSEGSAPGTSESATPESGPGSEPATSGSETPGTSESATPESGPGSEPATSGSETPGTSESATPESGPGTSTEPSEGSAPGSPAGSPTSTEEGTSESATPESGPGSEPATSGSETPGTSESATPESGPGSPAGSPTSTEEGSPAGSPTSTEEGTSTEPSEGSAPGTSESATPESGPGTSESATPESGPGTSESATPESGPGSEPATSGSETPGSEPATSGSETPGSPAGSPTSTEEGTSTEPSEGSAPGTSTEPSEGSAPGGSAPEAGRSANHTPAGLTGPDIQMTQSPSSLSASVGDRVTITCKASQDVSIGVAWYQQKPGKAPKLLIYSASYRYTGVPSRFSGSGSGTDFTLTISSLQPEDFATYYCQQYYIYPYTFGQGTKVEIKGATPPETGAETESPGETTGGSAESEPPGEGEVQLVESGGGLVQPGGSLRLSCAASGFTFTDYTMDWVRQAPGKGLEWVADVNPNSGGSIYNQRFKGRFTLSVDRSKNTLYLQMNSLRAEDTAVYYCARNLGPSFYFDYWGQGTLVTVSSELVVTQEPSLTVSPGGTVTLTCRSSNGAVTSSNYANWVQQKPGQAPRGLIGGTNKRAPGTPARFSGSLLGGKAALTLSGVQPEDEAVYYCALWYPNLWVFGGGTKLTVLGATPPETGAETESPGETTGGSAESEPPGEGEVQLLESGGGIVQPGGSLKLSCAASGFTFNTYAMNWVRQAPGKGLEWVARIRSKYNNYATYYADSVKDRFTISRDDSKNTVYLQMNNLKTEDTAVYYCVRHENFGNSYVSWFAHWGQGTLVTVSSEAGRSANHTPAGLTGP
- EC50 (pM), cytotoxicity (Caspase-Glo 3/7), BT-474 cells with human PBMC [1]: 66000 pM
- EC50 (pM), cytotoxicity (Caspase-Glo 3/7), SK-Br3 cells with human PBMC [1]: 19500 pM
- EC50 (pM), cytotoxicity (Caspase-Glo 3/7), SKOV-3 cells with human PBMC [1]: 14100 pM

B2: AC2275, bivalent anti-HER2, anti-CD3 XTENylated binder (HER2-XPAT of Example 24) (bispecific antibody)
chain: HHHHHHSPAGSPTSTEEGTSESATPESGPGTSTEPSEGSAPGTSESATPESGPGSEPATSGSETPGTSESATPESGPGSEPATSGSETPGTSESATPESGPGTSTEPSEGSAPGSPAGSPTSTEEGTSESATPESGPGSEPATSGSETPGTSESATPESGPGSPAGSPTSTEEGSPAGSPTSTEEGTSTEPSEGSAPGTSESATPESGPGTSESATPESGPGTSESATPESGPGSEPATSGSETPGSEPATSGSETPGSPAGSPTSTEEGTSTEPSEGSAPGTSTEPSEGSAPGGSAPEAGRSANHTPAGLTGPATSGSETPGTDIQMTQSPSSLSASVGDRVTITCKASQDVSIGVAWYQQKPGKAPKLLIYSASYRYTGVPSRFSGSGSGTDFTLTISSLQPEDFATYYCQQYYIYPYTFGQGTKVEIKGATPPETGAETESPGETTGGSAESEPPGEGEVQLVESGGGLVQPGGSLRLSCAASGFTFTDYTMDWVRQAPGKGLEWVADVNPNSGGSIYNQRFKGRFTLSVDRSKNTLYLQMNSLRAEDTAVYYCARNLGPSFYFDYWGQGTLVTVSSGGGGSELVVTQEPSLTVSPGGTVTLTCRSSNGAVTSSNYANWVQQKPGQAPRGLIGGTNKRAPGTPARFSGSLLGGKAALTLSGVQPEDEAVYYCALWYPNLWVFGGGTKLTVLGATPPETGAETESPGETTGGSAESEPPGEGEVQLLESGGGIVQPGGSLKLSCAASGFTFNTYAMNWVRQAPGKGLEWVARIRSKYNNYATYYADSVKDRFTISRDDSKNTVYLQMNNLKTEDTAVYYCVRHENFGNSYVSWFAHWGQGTLVTVSSGTAEAASASGEAGRSANHTPAGLTGPPGSPAGSPTSTEEGTSESATPESGPGTSTEPSEGSAPGSPAGSPTSTEEGTSTEPSEGSAPGTSTEPSEGSAPGTSESATPESGPGSEPATSGSETPGSEPATSGSETPGSPAGSPTSTEEGTSESATPESGPGTSTEPSEGSAPGTSTEPSEGSAPGSPAGSPTSTEEGTSTEPSEGSAPGTSTEPSEGSAPGTSESATPESGPGTSTEPSEGSAPGTSESATPESGPGSEPATSGSETPGTSTEPSEGSAPGTSTEPSEGSAPGTSESATPESGPGTSESATPESGPGSPAGSPTSTEEGTSESATPESGPGSEPATSGSETPGTSESATPESGPGTSTEPSEGSAPGTSTEPSEGSAPGTSTEPSEGSAPGTSTEPSEGSAPGTSTEPSEGSAPGTSTEPSEGSAPGSPAGSPTSTEEGTSTEPSEGSAPGTSESATPESGPGSEPATSGSETPGTSESATPESGPGSEPATSGSETPGTSESATPESGPGTSTEPSEGSAPGTSESATPESGPGSPAGSPTSTEEGSPAGSPTSTEEGSPAGSPTSTEEGTSESATPESGPGTSTEPSEGSAPGAAEPEA
notes: also called HER2-XPAT 2275
- EC50, % CD69+ T cells in human PBMC co-cultured with SK-OV-3 cells (flow cytometry) [2]: 3.63 nM
- IC50, T-cell directed cytotoxicity (CellTiter-Glo ATP assay), BT474 cells with human PBMC [2]: 1.36 nM
- IC50, T-cell directed cytotoxicity (CellTiter-Glo ATP assay), MCF7 cells with human PBMC [2]: > 26.7 nM
- IC50, T-cell directed cytotoxicity (CellTiter-Glo ATP assay), SKOV3 cells with human PBMC [2]: 15.3 nM
- Kd (Human CD3 ϵ -Fc): 111 nM
- Kd (Cyno CD3 ϵ -Fc): 170 nM

B4: CD3.25 scFv (scFv)
scFv: ELVVTQEPSHTVSPGGTVTLTCRSSTGAVTSSNYANWVQQKPGQAPRGLIGGTIKRAPGTPARFSGSLLGGKAALTLSGVQPEDEAEYYCALWYPNLWVFGGGTKLTVLGATPPETGAETESPGETTGGSAESEPPGEGEVQLLESGGGIVQPGGSLKLSCAASGFTFNTYAMNWVRQAPGKGLEWVARIRSKYNNYATYYADSVKDRFTISRDDSKNTVYLQMNNLKTEDTAVYYCVRHENFGNSYVSWFAHWGQGTLVTVSS
- Kd [3]: 215 nM

B7: CD3.23 scFv (scFv)
scFv: ELVVTQEPSLTVSPGGTVTLTCRSSNGAVTSSNYANWVQQKPGQAPRGLIGGTNKRAPGTPARFSGSLLGGKAALTLSGVQPEDEAVYYCALWYPNLWVFGGGTKLTVLGATPPETGAETESPGETTGGSAESEPPGEGEVQLLESGGGIVQPGGSLKLSCAASGFTFNTYAMNWVRQAPGKGLEWVARIRSKYNNYATYYADSVKDRFTISRDDSKNTVYLQMNNLKTEDTAVYYCVRHENFGNSYVSWFAHWGQGTLVTVSS
- Kd [3]: 175 nM

The next lines start with the values.

- Kd [3]: 75 nM
B3: CD3.9 scFv (scFv)
scFv: ELVVTQEPSLTVSPGGTVTLTCRSSTGAVTTSNYANWVQQKPGQAPRGLIGGTNKRAPGTPARFSGSLLGGKAALTLSGVQPEDEAEYYCALWYSNLWVFGGGTKLTVLGATPPETGAETESPGETTGGSAESEPPGEGEVQLLESGGGLVQPGGSLKLSCAASGFTFNTYAMNWVRQAPGKGLEWVARIRSKYNNYATYYADSVKDRFTISRDDSKNTAYLQMNNLKTEDTAVYYCVRHGNFGNSYVSWFAYWGQGTLVTVSS

- Kd [3]: 221 nM
B5: CD3.26 scFv (scFv)
scFv: ELVVTQEPSHTVSPGGTVTLTCRSSTGEVTTSNYANWVQQKPGQAPRGLIGGTIKRAPGTPARFSGSLLGGKAALTLSGVQPEDEAEYYCALWYPNLWVFGGGTKLTVLGATPPETGAETESPGETTGGSAESEPPGEGEVQLLESGGGIVQPGGSLKLSCAASGFTFNTYAMNWVRQAPGKGLEWVARIRSKYNNYATYYADSVKDRFTISRDDSKNTVYLQMNNLKTEDTAVYYCVRHENFGNSYVSWFAHWGQGTLVTVSS

- Kd [3]: 296 nM
B6: CD3.24 scFv (scFv)
scFv: ELVVTQEPSLTVSPGGTVTLTCRSSNGEVTTSNYANWVQQKPGQAPRGLIGGTIKRAPGTPARFSGSLLGGKAALTLSGVQPEDEAVYYCALWYPNLWVFGGGTKLTVLGATPPETGAETESPGETTGGSAESEPPGEGEVQLLESGGGIVQPGGSLKLSCAASGFTFNTYAMNWVRQAPGKGLEWVARIRSKYNNYATYYADSVKDRFTISRDDSKNTVYLQMNNLKTEDTAVYYCVRHENFGNSYVSWFAHWGQGTLVTVSS
